Where “and” joins values, the source holds several entries; their conditions need not be identical. Identical values can stand only once. One block for each binder: values may come before it. *1 amine or outer side, *2 acyl side, *3 side chain or, on linkers, in order; H or OH if unused. Bridges are numbered along the chain shown (N, C = ends). Primed or numbered codes have the meaning given here. [ ]: non-standard residue; d: D form. Cys(Me) = CSC[C@H](N[*:1])C(=O)[*:2]; αMeF = C[C@](N)(Cc1ccccc1)C(=O)O; Bz′ = not defined here; Ppa = not defined here; Sar = CNCC(=O)O
Tests used:
β-catenin [1] = molecular target: T1, β-catenin (UniProt P35222 134-665, limits assumed, biotinylated in the SPR and plate assays); experiment: cell-based or functional assay
T1 sequence (looked up): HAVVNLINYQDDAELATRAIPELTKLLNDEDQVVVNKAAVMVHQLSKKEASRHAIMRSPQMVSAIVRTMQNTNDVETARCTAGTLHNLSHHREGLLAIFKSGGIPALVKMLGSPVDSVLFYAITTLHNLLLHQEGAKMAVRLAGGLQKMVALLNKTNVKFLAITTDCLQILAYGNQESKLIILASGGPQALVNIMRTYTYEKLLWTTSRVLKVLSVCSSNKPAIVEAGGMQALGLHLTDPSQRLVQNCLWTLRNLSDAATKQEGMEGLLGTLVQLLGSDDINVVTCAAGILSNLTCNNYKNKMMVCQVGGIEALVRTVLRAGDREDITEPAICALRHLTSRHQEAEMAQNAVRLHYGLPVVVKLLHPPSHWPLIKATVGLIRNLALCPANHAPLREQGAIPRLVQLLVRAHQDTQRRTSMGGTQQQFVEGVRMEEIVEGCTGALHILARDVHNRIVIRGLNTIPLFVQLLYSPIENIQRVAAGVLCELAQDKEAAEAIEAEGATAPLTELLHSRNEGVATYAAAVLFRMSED

β-catenin [2] = molecular target: T1, β-catenin; experiment: competitive FP
Method in brief: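 Competitive fluorescence polarization with inhibitor peptide serially diluted from 10 nM to 30 uM; polarization read at 470 nm excitation, 520 nm emission. Experiments performed three times.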

Wnt Reporter EC50 (β-catenin [1]): > 7500 nM and ≤ 15000 nM | Kd (β-catenin [2]): > 10000 nM and ≤ 30000 nM
B1: SEQ ID NO: 175 (peptide)
peptide: DWFLICFWKG
HELM: PEPTIDE1{[ac].D.W.F.L.I.C.F.W.K.G}$PEPTIDE1,PEPTIDE1,2:R3-10:R3$$$V2.0
SMILES: CC[C@H](C)[C@@H]1NC(=O)[C@H](CC(C)C)NC(=O)[C@H](Cc2ccccc2)NC(=O)[C@H](Cc2c[nH]c3ccccc23)NC(=O)[C@@H](NC(C)=O)CC(=O)NCCCC[C@@H](C(=O)NCC(=O)O)NC(=O)[C@H](Cc2c[nH]c3ccccc23)NC(=O)[C@H](Cc2ccccc2)NC(=O)[C@H](CS)NC1=O

Wnt Reporter EC50 (β-catenin [1]): ≤ 7500 nM | Kd (β-catenin [2]): > 400 nM and ≤ 1000 nM
Binder: Ac-MWFLISFWG-OH [SEQ ID NO: 219]

Wnt Reporter EC50 (β-catenin [1]): ≤ 7500 nM | Kd (β-catenin [2]): > 400 nM and ≤ 1000 nM
Binder: Ac-WFLIAFWG-OH [SEQ ID NO: 196]

Wnt Reporter EC50 (β-catenin [1]): ≤ 7500 nM | Kd (β-catenin [2]): > 400 nM and ≤ 1000 nM
Binder: Ac-WFLICFWG-OH [SEQ ID NO: 194]

Wnt Reporter EC50 (β-catenin [1]): ≤ 7500 nM | Kd (β-catenin [2]): ≤ 400 nM
Binder: Ac-WILISFWG-OH [SEQ ID NO: 195]

Wnt Reporter EC50 (β-catenin [1]): ≤ 7500 nM | Kd (β-catenin [2]): > 400 nM and ≤ 1000 nM
Binder: Ac-WFLISFWG-OH (also called Hit 5) [SEQ ID NO: 220]

Proliferation IC50, Endo cells (β-catenin [1]): 7700 nM | Proliferation IC50, Wnt dependent cells (β-catenin [1]): 4000 nM | Wnt Reporter EC50 (β-catenin [1]): > 7500 nM and ≤ 15000 nM | Kd (β-catenin [2]): > 400 nM and ≤ 1000 nM
B2: SEQ ID NO: 261 (peptide)
peptide: KWALIXAWD
HELM: PEPTIDE1{[ac].K.W.[Cha].L.I.[Abu].A.W.D}$PEPTIDE1,PEPTIDE1,2:R3-10:R3$$$V2.0
SMILES: CC[C@@H]1NC(=O)[C@H]([C@@H](C)CC)NC(=O)[C@H](CC(C)C)NC(=O)[C@H](CC2CCCCC2)NC(=O)[C@H](Cc2c[nH]c3ccccc23)NC(=O)[C@@H](NC(C)=O)CCCCNC(=O)C[C@@H](C(=O)O)NC(=O)[C@H](Cc2c[nH]c3ccccc23)NC(=O)[C@H](C)NC1=O

Wnt Reporter EC50 (β-catenin [1]): > 7500 nM and ≤ 15000 nM | Kd (β-catenin [2]): > 10000 nM and ≤ 30000 nM
B3: SEQ ID NO: 176 (peptide)
peptide: DWFLICFWKG
HELM: PEPTIDE1{D.W.F.L.I.C.F.W.K.G}$PEPTIDE1,PEPTIDE1,1:R3-9:R3$$$V2.0
SMILES: CC[C@H](C)[C@@H]1NC(=O)[C@H](CC(C)C)NC(=O)[C@H](Cc2ccccc2)NC(=O)[C@H](Cc2c[nH]c3ccccc23)NC(=O)[C@@H](N)CC(=O)NCCCC[C@@H](C(=O)NCC(=O)O)NC(=O)[C@H](Cc2c[nH]c3ccccc23)NC(=O)[C@H](Cc2ccccc2)NC(=O)[C@H](CS)NC1=O

Wnt Reporter EC50 (β-catenin [1]): ≤ 7500 nM | Kd (β-catenin [2]): > 400 nM and ≤ 1000 nM
B4: SEQ ID NO: 204 (peptide)
peptide: KWGLISAWD
HELM: PEPTIDE1{K.W.[O=C([C@@H](N[*:1])C1CCCCC1)[*:2]].L.I.S.A.W.D}$PEPTIDE1,PEPTIDE1,1:R3-9:R3$$$V2.0
SMILES: CC[C@H](C)[C@@H]1NC(=O)[C@H](CC(C)C)NC(=O)[C@H](C2CCCCC2)NC(=O)[C@H](Cc2c[nH]c3ccccc23)NC(=O)[C@@H](N)CCCCNC(=O)C[C@@H](C(=O)O)NC(=O)[C@H](Cc2c[nH]c3ccccc23)NC(=O)[C@H](C)NC(=O)[C@H](CO)NC1=O

Wnt Reporter EC50 (β-catenin [1]): ≤ 7500 nM | Kd (β-catenin [2]): > 400 nM and ≤ 1000 nM
Binder: H-MWFLI[Cys(Me)]FWG-OH [SEQ ID NO: 214]

Wnt Reporter EC50 (β-catenin [1]): ≤ 7500 nM | Kd (β-catenin [2]): > 400 nM and ≤ 1000 nM
B5: SEQ ID NO: 216 (peptide)
peptide: MWALISFWG
HELM: PEPTIDE1{[ac].M.W.[Cha].L.I.S.F.W.G}$$$$V2.0
SMILES: CC[C@H](C)[C@H](NC(=O)[C@H](CC(C)C)NC(=O)[C@H](CC1CCCCC1)NC(=O)[C@H](Cc1c[nH]c2ccccc12)NC(=O)[C@H](CCSC)NC(C)=O)C(=O)N[C@@H](CO)C(=O)N[C@@H](Cc1ccccc1)C(=O)N[C@@H](Cc1c[nH]c2ccccc12)C(=O)NCC(=O)O

Wnt Reporter EC50 (β-catenin [1]): ≤ 7500 nM | Kd (β-catenin [2]): > 400 nM and ≤ 1000 nM
Binder: KWFLICAWD (cyclo-H2N-K(G*)WFLICAWD*-COOH) [SEQ ID NO: 207]

Wnt Reporter EC50 (β-catenin [1]): ≤ 7500 nM | Kd (β-catenin [2]): > 400 nM and ≤ 1000 nM
Binder: H-MWFLIAAWG-OH [SEQ ID NO: 212]

Wnt Reporter EC50 (β-catenin [1]): ≤ 7500 nM | Kd (β-catenin [2]): > 400 nM and ≤ 1000 nM
B6: SEQ ID NO: 225 (peptide)
peptide: MWILISFWG
HELM: PEPTIDE1{[CC(C)(C)C(=O)[*:2]].M.W.I.L.I.S.F.W.G}$$$$V2.0
SMILES: CC[C@H](C)[C@H](NC(=O)[C@H](CC(C)C)NC(=O)[C@@H](NC(=O)[C@H](Cc1c[nH]c2ccccc12)NC(=O)[C@H](CCSC)NC(=O)C(C)(C)C)[C@@H](C)CC)C(=O)N[C@@H](CO)C(=O)N[C@@H](Cc1ccccc1)C(=O)N[C@@H](Cc1c[nH]c2ccccc12)C(=O)NCC(=O)O

Wnt Reporter EC50 (β-catenin [1]): ≤ 7500 nM | Kd (β-catenin [2]): > 400 nM and ≤ 1000 nM
Binder: H-AWFLISFWG-OH [SEQ ID NO: 209]

Wnt Reporter EC50 (β-catenin [1]): ≤ 7500 nM | Kd (β-catenin [2]): ≤ 400 nM
Binder: Ac-MWILISFW[Sar]-OH [SEQ ID NO: 221]

Wnt Reporter EC50 (β-catenin [1]): ≤ 7500 nM | Kd (β-catenin [2]): ≤ 400 nM
Binder: Ppa-MWILISFWG-OH (reading uncertain; also: printed as Ppa-MWILISFWG-COOH, also called Hit 2) [SEQ ID NO: 224]

Wnt Reporter EC50 (β-catenin [1]): ≤ 7500 nM | Kd (β-catenin [2]): ≤ 400 nM
B7: SEQ ID NO: 217 (peptide)
peptide: MWGLISFWG
HELM: PEPTIDE1{[ac].M.W.[O=C([C@@H](N[*:1])C1CCCCC1)[*:2]].L.I.S.F.W.G}$$$$V2.0
SMILES: CC[C@H](C)[C@H](NC(=O)[C@H](CC(C)C)NC(=O)[C@@H](NC(=O)[C@H](Cc1c[nH]c2ccccc12)NC(=O)[C@H](CCSC)NC(C)=O)C1CCCCC1)C(=O)N[C@@H](CO)C(=O)N[C@@H](Cc1ccccc1)C(=O)N[C@@H](Cc1c[nH]c2ccccc12)C(=O)NCC(=O)O
notes: also called Hit 1

Wnt Reporter EC50 (β-catenin [1]): ≤ 7500 nM | Kd (β-catenin [2]): ≤ 400 nM
Binder: Ac-MWLLISFWG-OH [SEQ ID NO: 218]

Wnt Reporter EC50 (β-catenin [1]): ≤ 7500 nM | Kd (β-catenin [2]): ≤ 400 nM
Binder: {Bz′}-MWILISFWG-OH [SEQ ID NO: 223]

Wnt Reporter EC50 (β-catenin [1]): > 30000 nM | Kd (β-catenin [2]): ≤ 400 nM
Binder: H-MW[αMeF]LISFWG-OH [SEQ ID NO: 133]

Wnt Reporter EC50 (β-catenin [1]): ≤ 7500 nM | Kd (β-catenin [2]): > 400 nM and ≤ 1000 nM
Binder: [Ado]MWFLICFWD-OH (lactam N-10) [SEQ ID NO: 190]

Proliferation IC50, Endo cells (β-catenin [1]): > 30000 nM | Wnt Reporter EC50 (β-catenin [1]): > 30000 nM | Kd (β-catenin [2]): ≤ 400 nM
B8: Peptide 2 (SEQ ID NO: 215) (peptide)
peptide: KLWALIXAWD
HELM: PEPTIDE1{[ac].K.[Nle].W.[Cha].L.I.[Abu].A.W.D}$PEPTIDE1,PEPTIDE1,2:R3-11:R3$$$V2.0
SMILES: CCCC[C@@H]1NC(=O)[C@@H](NC(C)=O)CCCCNC(=O)C[C@@H](C(=O)O)NC(=O)[C@H](Cc2c[nH]c3ccccc23)NC(=O)[C@H](C)NC(=O)[C@H](CC)NC(=O)[C@H]([C@@H](C)CC)NC(=O)[C@H](CC(C)C)NC(=O)[C@H](CC2CCCCC2)NC(=O)[C@H](Cc2c[nH]c3ccccc23)NC1=O
notes: also called Cyclo-acetyl-K*Nle-W-3-cyclohexyl-L-alanine-LI-(amino butyric acid-AWD*-COOH)

Wnt Reporter EC50 (β-catenin [1]): ≤ 7500 nM | Kd (β-catenin [2]): > 400 nM and ≤ 1000 nM
B9: SEQ ID NO: 189 (peptide)
peptide: XMWFLICFWD
HELM: PEPTIDE1{[O=C(CCCCCN[*:1])[*:2]].M.W.F.L.I.C.F.W.D}$PEPTIDE1,PEPTIDE1,1:R1-10:R3$$$V2.0
SMILES: CC[C@H](C)[C@@H]1NC(=O)[C@H](CC(C)C)NC(=O)[C@H](Cc2ccccc2)NC(=O)[C@H](Cc2c[nH]c3ccccc23)NC(=O)[C@H](CCSC)NC(=O)CCCCCNC(=O)C[C@@H](C(=O)O)NC(=O)[C@H](Cc2c[nH]c3ccccc23)NC(=O)[C@H](Cc2ccccc2)NC(=O)[C@H](CS)NC1=O

Wnt Reporter EC50 (β-catenin [1]): ≤ 7500 nM | Kd (β-catenin [2]): ≤ 400 nM
B10: SEQ ID NO: 192 (peptide)
peptide: XMWFLICAWD
HELM: PEPTIDE1{[O=C(CCCCCN[*:1])[*:2]].M.W.F.L.I.C.A.W.D}$PEPTIDE1,PEPTIDE1,1:R1-10:R3$$$V2.0
SMILES: CC[C@H](C)[C@@H]1NC(=O)[C@H](CC(C)C)NC(=O)[C@H](Cc2ccccc2)NC(=O)[C@H](Cc2c[nH]c3ccccc23)NC(=O)[C@H](CCSC)NC(=O)CCCCCNC(=O)C[C@@H](C(=O)O)NC(=O)[C@H](Cc2c[nH]c3ccccc23)NC(=O)[C@H](C)NC(=O)[C@H](CS)NC1=O

Wnt Reporter EC50 (β-catenin [1]): ≤ 7500 nM | Kd (β-catenin [2]): > 400 nM and ≤ 1000 nM
Binder: [Ado]MWFLICAWD-OH (lactam N-10) [SEQ ID NO: 193]
